From article PMC5714352

Test system: NucT H124N (Helicobacter pylori 26695)
Assay: EMSA

Sequence: CAACGGCATAAAGCTTGACGATTACATTGCTAGGACATCTTTGCCCACCTGCAGGTTCACCC [substrate I (XV98, 62-mer ssDNA)]
- Kd: 2 nM
